Experimental data taken from patent publication US20160075755A1.

Target: TGFβ1 (UniProt P01137)
Experiment: cell-based or functional assay

Chain of DNRII (truncated, dominant-negative TGFβ receptor II) (P37173 23-199): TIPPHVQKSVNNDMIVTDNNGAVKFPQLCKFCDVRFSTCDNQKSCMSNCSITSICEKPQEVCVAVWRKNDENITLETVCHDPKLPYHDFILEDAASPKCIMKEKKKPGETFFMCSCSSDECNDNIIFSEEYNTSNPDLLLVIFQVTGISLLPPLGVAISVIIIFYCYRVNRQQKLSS
Chain of TGFβ1 (P01137 279-390 limits assumed): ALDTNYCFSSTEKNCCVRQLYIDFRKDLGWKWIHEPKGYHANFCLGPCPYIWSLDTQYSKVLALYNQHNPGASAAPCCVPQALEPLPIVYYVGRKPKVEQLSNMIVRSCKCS

T cell expansion for >60 days in the presence of TGFβ1 | Total Flux of firefly-luciferase-Du145 cells (express PSCA, produce TGFβ1) after 6 days of co-culture | fold expansion of 2G.CAR-PSCA(RIID4) T cells at 2 weeks of culture in the presence of TGFβ1 | transgenic T cell proliferation with TGFβ1 alone (no antigen) | T cell expansion after 30 days in culture in the presence of TGFβ1 | fold expansion of 2G.CAR-PSCA(DNRII) T cells at 2 weeks of culture in the presence of TGFβ1 | Substance
300000 fold | 9e+09 p/s | 21 fold | 0.04 fold |  |  | RIID4 (chimeric cytokine receptor: exodomain of TGFβRII linked to the endodomain of toll-like receptor (TLR) 4) (from UniProt P37173 23-166; O00206 632-839)
 | 1e+10 p/s |  |  | 0.72 fold | 7.4 fold | DNRII (truncated, dominant-negative TGFβ receptor II) (from UniProt P37173 23-199)
